{
  "source": "patent US20250332297A1",
  "about": "“DLL3-SPECIFIC BINDING CONSTRUCTS AND THEIR USE IN RADIOTHERAPY” (MOLECULAR PARTNERS AG, priority 2024, published 2025)",
  "molecules": {"B1": {"name": "Rova: Rova antibody, DLL3-binding benchmark antibody used as positive control and comparison (antibody, chains of the INN, looked up, V domains shown)", "VH": "QVQLVQSGAEVKKPGASVKVSCKASGYTFTNYGMNWVRQAPGQGLEWMGWINTYTGEPTYADDFKGRVTMTTDTSTSTAYMELRSLRSDDTAVYYCARIGDSSPSDYWGQGTLVTVSS", "VL": "EIVMTQSPATLSVSPGERATLSCKASQSVSNDVVWYQQKPGQAPRLLIYYASNRYTGIPARFSGSGSGTEFTLTISSLQSEDFAVYYCQQDYTSPWTFGQGTKLEIK"}, "B2": {"name": "MAM279: Two domain (2D) ankyrin repeat protein: serum albumin-specific domain (SEQ ID NO: 7), PT linker, DLL3-specific domain of MAM093 (protein)", "chain": "DLGKKLLEAARAGQDDEVRELLKAGADVNAKDYFSHTPLHLAARNGHLKIVEVLLKAGADVNAKDFAGKTPLHLAADAGHLEIVEVLLKAGADVNAQDIFGKTPADIAADAGHEDIAEVLQKAAGSPTPTPTTPTPTPTTPTPTPTGSDLGKKLLAAAAQGQDDEVRELLKAGANVNAKDLFGYTPLHLAAWRGHLEIVEVLLKAGADVNAKDAAGETPLHLAAWFGHLEIVEVLLKAGADVNAQDLQGKTPADLAAKEGHEDIAEVLQKAA", "modifications": "Ankyrin repeat protein (MAM279)"}, "B3": {"name": "MAM279 conjugate: SEQ ID NO: 15 conjugated to DOTAM-maleimide, labelled with Pb-212 (natural lead in PK studies) (conjugate)", "chain": "GSDLGKKLLEAARAGQDDEVRELLKAGADVNAKDYFSHTPLHLAARNGHLKIVEVLLKAGADVNAKDFAGKTPLHLAADAGHLEIVEVLLKAGADVNAQDIFGKTPADIAADAGHEDIAEVLQKAAGSPTPTPTTPTPTPTTPTPTPTGSDLGKKLLAAAAQGQDDEVRELLKAGANVNAKDLFGYTPLHLAAWRGHLEIVEVLLKAGADVNAKDAAGETPLHLAAWFGHLEIVEVLLKAGADVNAQDLQGKTPADLAAKEGHEDIAEVLQKAAGSGSC", "modifications": "DOTAM-maleimide, Pb-212 label; Ankyrin repeat protein with tag (GS-MAM279-tag)"}, "B4": {"name": "MAM279-DOTAM: GS-MAM279-tag (SEQ ID NO: 15) conjugated to the chelator DOTAM via C-terminal tag and maleimide connector, no radionuclide (conjugate)", "chain": "B3 chain", "modifications": "DOTAM chelator via maleimide on C-terminal tag; Ankyrin repeat protein with tag (GS-MAM279-tag)"}},
  "key": {"[1]": {"system": "SHP-77 lung carcinoma cells", "assay": "Internalization in SHP-77 cells", "format": "cell-based, human", "details": "AF488 label with anti-AF488 quencher, 37° C.", "method": "(§1) Studies were performed to determine whether a half-life extended DLL3-specific ankyrin repeat protein, as described herein, is internalized upon binding to cells expressing DLL3 on their surface. The specific ankyrin repeat protein tested was MAM279 (SEQ ID NO: 11) (with a Glycine-Serine (GS) at its N-terminal end). […] As a comparison, internalization was also tested for Rova antibody. Internalization was investigated on different cell types expressing DLL3 on their surface, namely SHP-77 lung carcinoma cells, NCI-H82 lung carcinoma cells, and hDLL3-expressing MC38 (MC38-hDLL3) colon carcinoma cells. In brief, DARPin and antibody were pre-incubated and labelled with fluorescently labelled detection antibodies (Fab-AF488) and added to 5×10^4 cells/well in a 96-well plate (100 nM DARPin, 10 nM antibody control) and incubated for 1h on ice. Cells were washed once with PBS and then incubated for different timepoints (0 min, 15 min, 30 min, 1 h and/or 4 h) at 37° C. in PBS with 2% FCS. […] Raw fcs files were exported and analyzed using FlowJo software. MFI values of live AF488-positive cells were exported from FlowJo and plotted using GraphPad Prism software. % internalization was determined by normalizing to non-binding control DARPin (for MAM279) or non-binding isotype control IgG (for Rova). […]"}, "[2]": {"system": "hDLL3-expressing MC38 (MC38-hDLL3) colon carcinoma cells", "assay": "Internalization in MC38-hDLL3 cells", "format": "cell-based", "details": "AF488 label with anti-AF488 quencher, 37° C.", "method": "as §1"}, "Dog DLL3-NTD": {"system": "Dog DLL3-NTD", "assay": "SPR binding to dog DLL3-NTD (Example 11)", "method": "The truncated dog DLL3 construct, comprising only the N-Terminal Domain (NTD, residues 27-189), was designed similarly to the human truncated target protein, with a C-terminal 6×His and Avi-tag. Co-expression was carried in Expi293F cells and purification was performed via Ni-NTA affinity chromatography followed by SEC. The final material was monomeric on size exclusion and stored in PBS pH 7.4 at the final concentration of ˜0.1-0.2 mg/ml.\nThe binding of 2D ankyrin repeat protein MAM279 as well as of MAM279 conjugated to the chelator DOTAM (the conjugation was performed as described in Example 3) to different target proteins was analyzed by Surface Plasmon Resonance (SPR). Specifically, the proteins analyzed were (i) MAM279 (SEQ ID NO: 11), with a Glycine-Serine (GS) at its N-terminal end and an N-terminal His-tag (SEQ ID NO: 19); and (ii) MAM279 (SEQ ID NO: 11), with a Glycine-Serine (GS) at its N-terminal end and a tag (SEQ ID NO: 10) at its C-terminal end (resulting in GS-MAM279-tag (SEQ ID NO: 15)), conjugated to the chelator DOTAM as described in Example 3.\nA surface plasmon resonance (SPR) assay was used to determine the binding kinetics of the two proteins (i.e. MAM279 with and without conjugation to chelator) to different targets: the Extra-Cellular Domain (ECD) of human DLL3, the ECD of cynomolgus monkey DLL3, the N-Terminal Domain (NTD) only of human DLL3, and the NTD dog DLL3. The data were generated using BioRad ProteOn instrument in SPR running buffer (PBS, pH 7.4 containing 0.005% Tween 20©). […] The chip was coated with biotinylated target to reach a signal intensity of 1516 RU (human ECD), 257 RU (human NTD), 1500 RU (cyno ECD) and 228 RU (dog NTD). All analytes (various concentrations in 3-fold dilutions ranging from 500-6.17 nM) were injected in succession for 240 s (100 μl/min) and dissociation was recorded for 10800 s (100 μl/min). Each injection was followed by a regeneration step with 16 mM H3PO4 for 18 s. […] The obtained SPR traces were used to determine on-rate and off-rate interaction parameters."}, "human serum albumin": {"molecular_target": "human serum albumin (Homo sapiens, UniProt P02768)", "assay": "SPR binding to human serum albumin (Example 18)", "parameters": "purchased CSL", "details": "immobilized HSA, 1:1 Langmuir, Table 21", "method": "SPR multi-trace analyses were performed similarly as described in previous Examples. The following ankyrin repeat proteins analyzed: (i) MAM279 (SEQ ID NO: 11) (with a Glycine-Serine (GS) at its N-terminal end); and (ii) MAM279 (SEQ ID NO: 11), with a Glycine-Serine (GS) at its N-terminal end and a tag (SEQ ID NO: 10) at its C-terminal end (resulting in GS-MAM279-tag (SEQ ID NO: 15)), conjugated to the chelator DOTAM as described in Example 3.\nAll analytes (3-fold dilution ranging from 600-7.41 nM) were injected in succession for 240 s and dissociation was recorded for 600 s using a constant flow of 25 μl/min (HSA) or 100 μl/min (MSA) (25 μl/min). […] The obtained SPR traces were used to determine the DARPin-serum albumin interaction parameters, and results are summarized in Table 21."}, "[3]": {"assay": "Dose response finding (tolerability) in WT CD1 mice", "description": "Animals were under observation daily and 3× per week animals were weighed. […] The data were expressed as % of body weight (BW) change (relative to the initial BW −7 day before the treatment).\nAnimals were under observation daily and 3× per week animals were weighed. […] The data were expressed as % of body weight (BW) change (relative to the BW seven days before the treatment, i.e. the initial BW at day −7) (average+/−SEM)."}, "[4]": {"details": "SPR, immobilized biotinylated target, 1:1 Langmuir, Table 15"}},
  "data": [
    {"molecule": "B1", "values": [
      {"measurement": "internalization", "setting": "[1]", "result": "internalization"},
      {"measurement": "internalization", "setting": "[2]", "result": "internalization"}
    ]},
    {"molecule": "B2", "values": [
      {"measurement": "internalization", "setting": "[1]", "result": "similarly internalized"},
      {"measurement": "internalization", "setting": "[2]", "result": "similarly internalized"},
      {"measurement": "fold lower affinity for dog DLL3-NTD than for human DLL3-ECD", "setting": "Dog DLL3-NTD; SPR KD comparison", "result": "about 10 fold"},
      {"measurement": "Kd", "setting": "Dog DLL3-NTD; [4]", "result": 1.2, "unit": "nM"},
      {"measurement": "Koff Dog DLL3-NTD", "setting": "Dog DLL3-NTD; [4]", "result": "5.58e-05", "unit": "s⁻¹"},
      {"measurement": "Kon Dog DLL3-NTD", "setting": "Dog DLL3-NTD; [4]", "result": 46400, "unit": "M⁻¹ s⁻¹"},
      {"measurement": "Kd", "setting": "human serum albumin", "result": 75.5, "unit": "nM"},
      {"measurement": "Koff HSA", "setting": "human serum albumin", "result": 0.0216, "unit": "s⁻¹"},
      {"measurement": "Kon HSA", "setting": "human serum albumin", "result": 286000, "unit": "M⁻¹ s⁻¹"}
    ]},
    {"molecule": "B3", "values": [
      {"measurement": "appearance of animals", "setting": "[3]; Pb-212 labelled conjugate injected once at 10 μCi, 20 μCi and 30 μCi i.v., WT CD1 mice", "result": "animals appeared healthy and active"},
      {"measurement": "body weight (BW) change", "setting": "[3]; Pb-212 labelled conjugate injected once at 10 μCi, 20 μCi and 30 μCi, WT CD1 mice, recovered within up to about 10 days", "result": "Minimal weight loss"},
      {"measurement": "toxicity", "setting": "[3]; Pb-212 labelled conjugate, injected dose of 60 μCi, WT CD1 mice", "result": "Toxicity was observed"},
      {"measurement": "hematology profile (white blood cells, lymphocytes, monocytes, neutrophils)", "setting": "[3]; within up to 28 days after injection of 10 μCi, 20 μCi and 30 μCi doses (data not shown)", "result": "complete recovery"}
    ]},
    {"molecule": "B4", "values": [
      {"measurement": "Koff Dog DLL3-NTD", "setting": "Dog DLL3-NTD; [4]", "result": "4.86e-05", "unit": "s⁻¹"},
      {"measurement": "Kon Dog DLL3-NTD", "setting": "Dog DLL3-NTD; [4]", "result": 33400, "unit": "M⁻¹ s⁻¹"}
    ]}
  ]
}
